Assay [1] addresses TraH expressed in E. faecalis JH2-2 (pEU327-RBS-traH) (Enterococcus faecalis (plasmid pIP501)). The assay can be described thus: cross-linking; in vivo, E. faecalis JH2-2 (pEU327-RBS-traH) cells in early log phase, formaldehyde 0.5–2% in PBS for 10 minutes; SDS-PAGE and western blot. (In general: Immunoblotting shows a protein as a band on a membrane.)
Assay [2] concerns the target TraH, full length, purified and reconstituted in DDM micelles (Enterococcus faecalis (plasmid pIP501)). Kind of assay: cross-linking; in vitro, 8 μg purified protein, 300 mM NaCl, 100 mM bicine, 1 mM DTT, glutaraldehyde 0–1% (v/v), 15 min at RT; full-length TraH kept in DDM micelles; SDS-PAGE and western blot.
For assay [3] the target is unchanged. Kind of assay: native gel or EMSA; semi-native PAGE: sample buffer without SDS and reducing agent, 4 °C, 12.5% native gels, running buffer with 0.1% SDS; full-length TraH in DDM micelles; western blot. On the technique in general: A gel shift assay detects complexes by their altered migration in electrophoresis.
Assay [4] has the same target. The assay can be described thus: SEC; analytical SEC of full length TraH reconstituted in DDM micelles; 70 kDa taken for the micelle; apparent molecular weight. A general note: SEC sorts molecules by how far they enter the pores of the column.

The results in this text go back to PMC4840375.

By stoichiometry N is commonly meant the number of molecules, sites or subunits per partner or assembly.

Substance “TraH expressed in E. faecalis JH2-2 (pEU327-RBS-traH) (natural protein)” displayed a stoichiometry N in assay [1] of 2.

As for “TraH, full length, purified and reconstituted in DDM micelles (natural protein)”, the stoichiometry N in assay [2] was 2; in assay [3], 2; in assay [4], 4.
